Source: the supplement of paper PMC9170038

System: K4 kissing-loop RNA reporter
Test: apparent KD of K4 kissing-loop reporter; higher = weaker reporter binding
Settings: Eterna round: R107; input ligand: none
Protocol: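 RNA-MaP round R107: designed RNA switches with theophylline, tryptophan, arginine or FMN aptamers are transcribed on-chip within common flanks. They are titrated with a labelled K4 kissing-loop RNA reporter in RNA-MaP buffer (100 mM Tris pH 7.5, 80 mM KCl, 4 mM MgCl2), without ligand or with the indicated ligand. Median apparent KD per design.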
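Also: bound reporter read as fluorescence of individual clusters on recovered sequencing chips by microscopy, with normalized cluster intensities fitted with a binding model.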

Sequence	apparent KD of K4 kissing-loop reporter [nM]
GGUGACAACCAGAGGUGAUGUAUAGAAUCGCGAGGACCGGUACGGCCGCCACUCGUGAAGAGAAAGGAGUGAUGUUCCGUAAUGG [Kazoo C6]	282
UGUACCGACUCAGGAUAUGUCGUCGAAAGACGAAAUGGAGUGAUGUUCCUUAAACUGCGAAAGCAGACAGAAGGGAGUUGGUACU [FmnBS 29 C9+G77]	235
GCUAUGGUAGGAAGGAGCGCUUAAUUACUAAUAAGAGUGAUGUUCGAUAGUAGGUAUUUGUAGCAGGUAGGUCGCCUACUAUAGC [KL-Arg B24]	444
GUAUAUCGAGUGAUGUUCGAAUGCUCCGAAGGAGCGCGGAUAAUCGCAGGUAGGUCGCGGAGCAGUUGCUGAGGAAGCUCAGUAU [Arg A SS t11]	211
AAGUCAUACAGAAGGAGCGUGUUUUAUAAUUUAUUUUCAUGAUCGAGUGAUGUUCGAUAUACACAGGUAGGUCGCUGUAUAAUAA [JR_SSArginiB_Sub007]	121
GAUCAUAGCACGGCCGCCACUGAUAUGCCGUGCUAUACGAGUGAUGUUCGUAAUUAUACGGGUAUCAGGACCGGGUGCAACGGUA [Tryp B SS t2]	113
AAGCAGUCACUCGAACCCAUCGAAGAUGGGCGAGGACCGGUACGGCCGCCACUCGGAGUGAUGUUCCGCAGACUGCAAAAUAAAA	339
UGAUAGGACAGAAGGAGCGGUAGUGAUGUUGCCAAAAGUAUAAGGUGUCAAAAGACACCCUACCAGGUAGGUCGCUGUCCUAUCU	354
AGCAAUAUCACGGCCGCCACUGAAUAUUGUUUUUAUAUUUAUAAAUCUUGCCAGUGAUGUUGGUUCAGGACCGGGUGAGUUAAUA [JR_SSTryptoB_Sub004]	783
CAAGCUCUCCAAGGAUAUGAUAUCGACCCGUCUUAGUGAUGUUAAGGCUGUAGAAAUUCACAUUGAUCAGAAGGUGGUACCCUCC [theeternabot_sameState_KL_FMN_B_8]	256
AAGUCAUAUAGAAGGAGCGUGUUUUUUAAUUUAUUUUCAUGAUCGAGUGAUGUUCGAUAUACACAGGUAGGUCGCUGUAUAAUAA [hbob_SS_Arginine_B_2t141]	127
UGUCAUUGGUCGGCCGCCACUUCGUAUGAAGUGAUGUUUUGUAGAUUGUGUUGAAAGGUGUGGUGAAGGACCGGGACCGAUGACU [FiskerMod 23 - Jieux - Same State - Tryptophan B]	1010
GUAUCGCUAGGAGGAUAUUUCAUAUAAUAUAUAAAUGGAUAUACGGAGUGAUGUUCCGAUUUACGGAAAGAAGGCCUAGUGAUAC [FMN B 18]	214
AUUUUGUUGUCAGGAUAUUAGUAUGGUUUUGGUUUGUUAGUGAUGUUGAUGUUUUGUUUAUGUAUUUAAGAAGGGAUUUAGCGGU [aqaawgumullin]	400
ACGUCACGUAUACUGGUGGUUUCGAUCGAUACCAGUAGCGAGAGUUACCCUUGGCAGCGACAUGAGUGAUGUUUAUGUAUGAUGA [#13 K4 Theophylline A Exclusion]	593
AACUGGGUUCGUGAUACCAGCUCACACAUGAGUGAUGUUGAUGUAGUGGGCAAAAUGUGGAGCCCUUGGCAGCACUGUGACCACG [XTheo-B3]	411
CUGACGUGCGGUAGGUUCAAGUGCUGGGAAGGAGCGCAGAUGACUGCAGGUAGGUCGCCCAGUGAUGUUGGGCUUUCCACCUACG [Quinbe]	193
AAUGUACAAGUGAUGUUUGUACUUUCCGAAGGAGCGUCAAAUAAGACAGGUAGGUCGCGGAUACUCUAAAUAAUCAGGUCAUUAA [JR_ExcArginiA_Sub019]	88.9
AAAUAAAAGGCGGCCGCCACUGAACGCCUCCGCGUGGGUAUAUAGUGAUGUUAUAUGGCCGCCUUCAGGACCGGGCCAAAUAAAA [AstrosSSTryB#1]	339
GGAGAGGUCUUGUUUGGAUGUGUUUAAUGGCGAGGACCGGUACGGCCGCCACUCGGGUGAUGUUAGUGAUGUUGAUGUAGUGAUG [wzwmullin]	93.4
GGAUAGGAUAGAGGAUAUGGCUUACGCAGAAAUAACUUGUUGUGUUUAUCCAUAGGGAGUGAUGUUCCAGAAGGCUGUCCUAUCG [MatMod 18 - Jieux - Exclusion - FMN B]	266
UUAUCUAUAUUCGAUACCAGUACCCUUUGUGUUAAUCCUUUUAUCAGUGAUGUUGAUGUGUACCCUUGGCAGCGGGUAUGGGUUU [KL-XTheo-B15]	437

Same assay, conditions: Eterna round: R107; input ligand: theophylline 20 uM

Sequence	apparent KD of K4 kissing-loop reporter [nM]
AGCGGCCAGUCGGCCGCCACUCCGGGCAGUGAUGUUGCGAAGUGUCUACUAGAGUGAUGUUCUAAGAGGACCGGGACUGACGUAU [Exclusion Tryptophan B Gf 11]	476
AUUUAAUUAACUGAUACCAGACUUUAUGUAUUUAUUAAAACUAGUGAUGUUAGUUUAUCUGUCCCUUGGCAGCAGUUUCUACUUA [JR_Nu_ExcTheophyB_Sub021]	105
UCCACGCUUCGAGGAUAUCGGAUUAGAGUGAUGUUCUAAAGACGCCCAGUGAUGUUGGAUGCGAUACGAGAAGGCGGUGGCGUGU [Same State FMN B GF6]	140
UUUUUGGAGAAUUAUAGUGAUGUUAUGAAGGAGGAUAUCUGGAGAUGGAGAAGGCCUAGUGGCUCAGCCCUCGCGGGUGGGUGGG [ExFMNA.aD]	530
UUUUAUAACCGAAGGAGCGCGUGGGCGCAGUGAUGUUGCGCCCGACAUCACUUCAACUUAACGCAGGUAGGUCGCGGUUUUAAUG [Arginine B (Excl) V3]	163
AGAUUCGACACGGCCGCCACUCGUGGUGGAUUACCUAGUGUCGAAGUUGAGUGAUGUUCAAGUACGAGGACCGGGUGUUGAGUCU [KL-XTryp-B8 #analogue]	403
UCGAUCGCUAGUGAUGUUGGUGUGCUACAUCGAGGACCGGUACGGCCGCCACUCGAGCCCGAGUAGAAGGGUGGGCUGCUAUGAA [theeternabot_sameState_KL_Trp_A_18]	743
AAAUAAAGCAGUCACCCAGUGAUGUUGGAAGGAGCGUGCGAAAGCACAGGUAGGUCGCCGAUAGGACAAAGUCCAAGUGGCUGCA [#SwitchBubble 30 #K4Early]	297
UUUGUAGUGGGAGGAUAUCCUAAUAUGGGUGAUGUUAGCGAUGUUGAAGGUGUAGUGAUGUUAUGCGGAGAAGGCCCACUGUAGA [BDazzled - #20 - Exc. FMN B]	614
AAAGGCAAAGCCCGAGUGAUGUUCGACGAUACCAGCCUCGAUAGAGGCCCUUGGCAGCGUAAAUGAUCAUGAAGCCAAGGAAUAA [whbob_Ex_Theo_A_th67]	260
AAAGGAUCAGAGAGUGAUGUUCUCUAAUAACGAGGACCGGUACGGCCGCCACUCGAAUAGAUCCAAGUCCUACGAAAAGUAGGAC [Omei inspired 8]	308
CCAUUCUGUUACGAUACCAGUCUAAUAUAUUUGAUCAAUACCCUCGCCGAGUGAUGUUCGGACCCUUGGCAGCGUCUGGGACAGG [bbybmullin]	440
GCCUUUUUUCGAGCUACAGCUCGAUUUGGUCGAGGACCGGUACGGCCGCCACUCGAAUGAUAGUGAUGUUAUCAUUAUGGCAUAA [JR_ExcTryptoA_Sub023]	186
AAGUGUCAUUAGACACACCGAUGUAUAAACUAGGAUAUGCUGAUAAGCAGAAGGAGUGAUGUUCCUUUCAUCAUCGGAAUUAAAU [#06 K4 FMN A Exclusion]	175
AACGCUGGUGAAUAACACUAGCGAAAUUCGCGAGGACCGGUACGGCCGCCACUCGCUAACUGCGAGUGAUGUUCGAUAAUAAAAU [Mat - Mod of OpenEnded 3 - D7]	280
AAGGGCGAGGUAACGUGGAUAUCUCGUCGCAAGGAUAUCUGGAAACAGAGAAGGUGCGACAUCACCGGCAGUGAUGUUGCUGGGC	227
AAUGUACAGGGAAGGAGCGUAGUCCAGUGAUGUUGGAAUUAAAUACCAGUGAUGUUGGUUAUACAGGUAGGUCGCCCUAAAGUGC [KL-XARG-B20]	89.5

Sequence	apparent KD of K4 kissing-loop reporter [nM]
AUUUUUUUAUCAGGAUAUUAGUGAUGGUUGUUUUUGUUAGUGAUGUUGAUAUUUGUUUUAUGUAUUUAAGAAGGGAUUGAGAUGU [zbbzmullin]	31.7
UACGCCACAGACGUGGAGUACCUUGGGUCGAAGGAUAUCAGCAUUGUGAGAAGGUCGCCGAUUCUAAGUGAUGUUUAGAUCAGGG [theeternabot_sameState_KL_FMN_A_2]	567
CGAGUGAUGUUCGAAGAGUUGUUAAGCGAUACCAGCUAGGAAACUGGCCCUUGGCAGCGUAAUAAAUAAAUAAAUAAAUGAUCAC [whbob_Ex_Theo_A_th62]	456
UCGAUAGAGAGUGAUGUUCUCGUAUCAGAUACCAGUCACGCGAGUGACCCUUGGCAGCUGAUGUACAGCUGAGAGUAGUAUUCGA [Theo A Ex t8]	129
UUUCCAGAUAAGUGGGAACACUCCAUAACAGAGGAUAUCAGAGCGCUGAGAAGGCUGUUUAUCAGUGAUGUUGAUAGUGUGGAGU [FMN A SS t2a]	786
GGUGACAACCAGAGGUGAUGUAUAGAAUCGCGAGGACCGGUACGGCCGCCACUCGUGAAGAGAAAGGAGUGAUGUUCCGUAAUGG [Kazoo C6]	364
UGUACCGACUCAGGAUAUGUCGUCGAAAGACGAAAUGGAGUGAUGUUCCUUAAACUGCGAAAGCAGACAGAAGGGAGUUGGUACU [FmnBS 29 C9+G77]	233
GCUAUGGUAGGAAGGAGCGCUUAAUUACUAAUAAGAGUGAUGUUCGAUAGUAGGUAUUUGUAGCAGGUAGGUCGCCUACUAUAGC [KL-Arg B24]	230
GUAUAUCGAGUGAUGUUCGAAUGCUCCGAAGGAGCGCGGAUAAUCGCAGGUAGGUCGCGGAGCAGUUGCUGAGGAAGCUCAGUAU [Arg A SS t11]	211
AAGUCAUACAGAAGGAGCGUGUUUUAUAAUUUAUUUUCAUGAUCGAGUGAUGUUCGAUAUACACAGGUAGGUCGCUGUAUAAUAA [JR_SSArginiB_Sub007]	146
GAUCAUAGCACGGCCGCCACUGAUAUGCCGUGCUAUACGAGUGAUGUUCGUAAUUAUACGGGUAUCAGGACCGGGUGCAACGGUA [Tryp B SS t2]	167
AAGCAGUCACUCGAACCCAUCGAAGAUGGGCGAGGACCGGUACGGCCGCCACUCGGAGUGAUGUUCCGCAGACUGCAAAAUAAAA	249
UGAUAGGACAGAAGGAGCGGUAGUGAUGUUGCCAAAAGUAUAAGGUGUCAAAAGACACCCUACCAGGUAGGUCGCUGUCCUAUCU	541
AGCAAUAUCACGGCCGCCACUGAAUAUUGUUUUUAUAUUUAUAAAUCUUGCCAGUGAUGUUGGUUCAGGACCGGGUGAGUUAAUA [JR_SSTryptoB_Sub004]	665
CAAGCUCUCCAAGGAUAUGAUAUCGACCCGUCUUAGUGAUGUUAAGGCUGUAGAAAUUCACAUUGAUCAGAAGGUGGUACCCUCC [theeternabot_sameState_KL_FMN_B_8]	351
AAGUCAUAUAGAAGGAGCGUGUUUUUUAAUUUAUUUUCAUGAUCGAGUGAUGUUCGAUAUACACAGGUAGGUCGCUGUAUAAUAA [hbob_SS_Arginine_B_2t141]	179
